Measurements taken from patent publication US20230235013A1 (MABSOLVE, published 2023).

T1: mouse FcγRI (Sino Biological Cat. No. 50086-M08H) (mouse, UniProt P26151 25-297)
T1 construct: bought
T1 sequence (looked up): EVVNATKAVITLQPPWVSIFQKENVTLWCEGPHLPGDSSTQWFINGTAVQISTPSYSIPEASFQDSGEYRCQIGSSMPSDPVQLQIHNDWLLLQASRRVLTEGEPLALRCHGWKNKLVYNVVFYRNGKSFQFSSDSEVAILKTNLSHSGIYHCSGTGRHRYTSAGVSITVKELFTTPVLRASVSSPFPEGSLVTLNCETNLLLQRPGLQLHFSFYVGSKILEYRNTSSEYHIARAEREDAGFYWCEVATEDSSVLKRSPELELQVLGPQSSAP

T2: human FcγRIIA (R131, Sino Biological Cat. No. 10374-H08H) (human, UniProt P12318 34-218)
T2 construct: bought; also called human FcγRIIa R131 allele; FcγRII allele R131
T2 sequence (looked up): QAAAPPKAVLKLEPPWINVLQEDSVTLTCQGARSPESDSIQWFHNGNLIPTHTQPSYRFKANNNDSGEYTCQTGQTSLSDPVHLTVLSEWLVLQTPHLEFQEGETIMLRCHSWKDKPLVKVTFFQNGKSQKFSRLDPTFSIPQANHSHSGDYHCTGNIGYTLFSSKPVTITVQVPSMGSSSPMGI

T3: human FcγRIIB (Sino Biological Cat. No. 10259-H08H) (human, UniProt P31994 43-217)
T3 construct: bought
T3 sequence (looked up): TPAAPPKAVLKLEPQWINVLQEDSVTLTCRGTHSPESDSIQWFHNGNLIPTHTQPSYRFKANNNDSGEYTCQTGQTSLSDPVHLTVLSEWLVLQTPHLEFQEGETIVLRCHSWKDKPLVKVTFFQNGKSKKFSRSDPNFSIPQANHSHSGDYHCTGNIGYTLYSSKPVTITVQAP

T4: mouse FcRn (Sino Biological Cat. No. CT029-M08H) (mouse, UniProt Q61559 22-297; P01887 21-119)
T4 construct: Bought protein, captured on an anti-histidine chip
T4 sequence (looked up): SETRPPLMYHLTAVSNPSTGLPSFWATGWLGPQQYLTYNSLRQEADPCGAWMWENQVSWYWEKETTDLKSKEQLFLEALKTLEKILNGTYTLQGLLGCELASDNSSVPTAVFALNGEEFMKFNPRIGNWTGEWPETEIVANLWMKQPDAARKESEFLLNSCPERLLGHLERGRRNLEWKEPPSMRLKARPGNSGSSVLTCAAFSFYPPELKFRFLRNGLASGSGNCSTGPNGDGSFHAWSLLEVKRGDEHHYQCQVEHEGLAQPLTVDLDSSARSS
T4 sequence (b2m, looked up): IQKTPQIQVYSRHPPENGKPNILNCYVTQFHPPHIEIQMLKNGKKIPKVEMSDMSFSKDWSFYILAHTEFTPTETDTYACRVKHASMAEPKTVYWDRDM

B1: anti-CD3 (muromonab variable regions) human IgG1 wild type reference (antibody)
heavy: not shown
light: QIVLTQSPAIMSASPGEKVTMTCSASSSVSYMNWYQQKSGTSPKRWIYDTSKLASGVPAHFRGSGSGTSYSLTISGMEAEDAATYYCQQWSSNPFTFGSGTKLEIKRTVAAPSVFIFPPSDEQLKSGTASVVCLLNNFYPREAKVQWKVDNALQSGNSQESVTEQDSKDSTYSLSSTLTLSKADYEKHKVYACEVTHQGLSSPVTKSFNRGEC
notes: also called 3-1; wild-type CD3 antibody
B2: anti-CD3 human IgG1 L234S/L235T/G236R (antibody)
heavy: not shown
light: B1 light
notes: also called 3-52; copies: 2 + 2
B3: anti-CD3 human IgG1 L234A/L235A (LALA) (antibody)
heavy: not shown
light: B1 light
notes: also called 3-65; copies: 2 + 2
B4: anti-CD3 human IgG1 L234A/L235A/P329G (LALAPG reference) (antibody)
heavy: not shown
light: B1 light
notes: also called 3-66; copies: 2 + 2
B5: anti-CD3 human IgG1 L234G/L235S/G236R (antibody)
heavy: not shown
light: B1 light
notes: also called 3-19; copies: 2 + 2
B6: anti-CD3 human IgG1 L234S/L235V/G236R (antibody)
heavy: not shown
light: B1 light
notes: also called 3-53; copies: 2 + 2
B7: anti-CD3 human IgG1 L234T/L235Q/G236R (antibody)
heavy: not shown
light: B1 light
notes: also called 3-60; copies: 2 + 2
B8: anti-CD3 human IgG1 L234T/L235T/G236R (antibody)
heavy: not shown
light: B1 light
notes: also called 3-63; copies: 2 + 2
B9: anti-CD3 human IgG1 N297Q (aglycosyl) (antibody)
heavy: not shown
light: B1 light
notes: also called 3-67; copies: 2 + 2
B10: anti-CD20 (rituximab) human IgG1 wild-type reference (antibody)
heavy: not shown
light: QIVLSQSPAILSASPGEKVTMTCRASSSVSYIHWFQQKPGSSPKPWIYATSNLASGVPVRFSGSGSGTSYSLTISRVEAEDAATYYCQQWTSNPPTFGGGTKLEIKRTVAAPSVFIFPPSDEQLKSGTASVVCLLNNFYPREAKVQWKVDNALQSGNSQESVTEQDSKDSTYSLSSTLTLSKADYEKHKVYACEVTHQGLSSPVTKSFNRGEC
notes: 2-1 and 10.0 are separate preparations of the same antibody; also called 2-1; 10.0; copies: 2 + 2

How the values were obtained:
[1] = biological target: T5, Sheep Fc-CD52 fusion protein (Absolute Antibody Cat. No. PR00205) (human, UniProt P31358 25-36); test: ELISA, antigen coated, antibody 5 µg/mL
T5 construct: bought; also called CD52 antigen; human CD52; not shown: sheep Fc

[2] = biological target: T6, CD3D/CD3E heterodimer (Sino Biologicals Cat. No. CT038-H2508H) (human, UniProt P04234 22-105; P07766 23-126); test: ELISA, antigen coated, antibody 5 µg/mL
T6 construct: bought; also called CD3 antigen; human CD3

[3] = biological target: T1, mouse FcγRI (Sino Biological Cat. No. …); test: SPR, captured His-receptor
[4] = biological target: T7, human FcγRIIIB (NA2 allotype, Sino Biological Cat. No. 11046-H08H) (human, UniProt O75015 17-200); test: SPR, captured His-receptor
T7 construct: bought; also called human FcγRIIIb NA2 allele

[5] = biological target: T2, human FcγRIIA (R131, Sino Biological …); test: SPR, captured His-receptor
[6] = biological target: T8, Histidine-tagged recombinant human FcγRI (CD64) (human, UniProt P12314 16-288); test: SPR, captured His-receptor
T8 construct: bought; also called Sino Biological Cat. No. 12056-H08H

[7] = biological target: T3, human FcγRIIB (Sino Biological Cat. No. …); test: SPR, captured His-receptor
[8] = biological target: T9, Human C1q (Sigma Cat. No. 20476), HRP-labelled (human, UniProt P02745 23-245; P02746 28-253; P02747 29-245); test: ELISA, antibody coated, HRP-C1q; Expt 1, buffer alone 0.053
T9 construct: Coupled to horse-radish peroxidase with Lightning-Link kit; also called HRP-labelled C1q

[9] = biological target: T10, C-terminus biotinylated human FcRn attached to Streptavidin-SmBiT (FcRn-SAv-SmBiT) (human, UniProt P55899 24-297; P61769 21-119, limits assumed, C-terminus biotinylated (AviTag), attached to Streptavidin-SmBiT); test: NanoBiT FcRn competition immunoassay, competitor Tracer-LgBiT human IgG, pH 6.0
T10 construct: Kit reagent; also called hFcRn-AviTag

[10] = biological target: T11, human FcRn (R&D Systems Cat. No. 8639-Fc) (human, UniProt P55899 24-297; P61769 21-119); test: SPR, FcRn captured; Expt 3
[11] = biological target: T11, human FcRn (R&D Systems Cat. No. …); test: SPR, FcRn captured; Expt 2
[12] = biological target: T9, Human C1q (Sigma Cat. No. 20476), …; test: ELISA, antibody coated, HRP-C1q; Expt 2, buffer alone 0.051
[13] = biological target: T9, Human C1q (Sigma Cat. No. 20476), …; test: ELISA, antibody coated, HRP-C1q; Expt 2, buffer alone 0.091
[14] = biological target: T11, human FcRn (R&D Systems Cat. No. …); test: SPR, FcRn captured via anti-His, pH 6.0;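 further: SPR binding signal relative to the reference cell, corrected by subtracting the response of a blank sample of running buffer alone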
[15] = biological target: T12, cynomolgus monkey FcRn (Sino Biological Cat. No. CT031-C08H) (cynomolgus monkey, UniProt Q8SPV9 24-297; Q8SPW0 21-119); test: SPR, FcRn captured via anti-His, pH 6.0;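 further: SPR binding signal relative to the reference cell, corrected by subtracting the response of a blank sample of running buffer alone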
T12 construct: Bought protein, captured on an anti-histidine chip; also called cynomolgus FcRn

[16] = biological target: T4, mouse FcRn (Sino Biological Cat. No. …); test: SPR, FcRn captured via anti-His, pH 6.0;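 further: SPR binding signal relative to the reference cell, corrected by subtracting the response of a blank sample of running buffer alone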
[17] = biological target: T11, human FcRn (R&D Systems Cat. No. …); test: SPR, FcRn captured; Expt 1
[18] = biological target: T9, Human C1q (Sigma Cat. No. 20476), …; test: ELISA, antibody coated, HRP-C1q; Expt 1, buffer alone 0.061
[19] = biological target: T11, human FcRn (R&D Systems Cat. No. …); test: SPR, FcRn captured; Mean
[20] = biological target: T9, Human C1q (Sigma Cat. No. 20476), …; test: ELISA, antibody coated, HRP-C1q; Expt 3, buffer alone 0.102

Row | Binder | Mean Absorbance [2] | binding result [3] | binding result [4] | binding result [5] | binding result [6] | binding result [7] | other results
1 | B1 | 1.01 absorbance | – | – | – | – | – | Mean Absorbance [1]: 0.006 absorbance
2 | B2 | 1.38 absorbance | no binding (tested: 100 µg/mL) | no binding (tested: 100 µg/mL) | no binding (tested: 100 µg/mL) | no binding (tested: 100 µg/mL) | no binding (tested: 100 µg/mL) | –
3 | B3 | 1.07 absorbance | – | – | binds | binds | – | –
4 | B4 | 1.13 absorbance | – | – | – | binds | – | –
5 | B5 | 1.24 absorbance | no binding (tested: 100 µg/mL) | no binding (tested: 100 µg/mL) | no binding (tested: 100 µg/mL) | no binding (tested: 100 µg/mL) | no binding (tested: 100 µg/mL) | –
6 | B6 | 1.25 absorbance | no binding (tested: 100 µg/mL) | no binding (tested: 100 µg/mL) | no binding (tested: 100 µg/mL) | no binding (tested: 100 µg/mL) | no binding (tested: 100 µg/mL) | –
7 | B7 | 1.33 absorbance | no binding (tested: 100 µg/mL) | no binding (tested: 100 µg/mL) | no binding (tested: 100 µg/mL) | no binding (tested: 100 µg/mL) | no binding (tested: 100 µg/mL) | –
8 | B8 | 1.04 absorbance | no binding (tested: 100 µg/mL) | no binding (tested: 100 µg/mL) | no binding (tested: 100 µg/mL) | no binding (tested: 100 µg/mL) | no binding (tested: 100 µg/mL) | –
9 | B9 | 0.749 absorbance | binds | – | – | binds | – | –
10 | B10 | – | – | – | – | – | – | Mean Absorbance [8]: 1.83 absorbance (450 nm); Mean binding activity (% of wild-type reference) [9]: 100 % of wild-type reference; Corrected and normalised response (% of wild-type reference) [10]: 100 % of wild-type reference; Corrected and normalised response (% of wild-type reference) [11]: 100 % of wild-type reference; Mean Absorbance [12]: 1.33 absorbance (450 nm); Mean Absorbance [13]: 2.21 absorbance (450 nm); Corrected response (RU) [14]: 582 RU; Corrected response (RU) [15]: 1320 RU; Corrected response (RU) [16]: 178 RU; Corrected and normalised response (% of wild-type reference) [17]: 100 % of wild-type reference; Mean Absorbance [18]: 2.63 absorbance (450 nm); Corrected and normalised response (% of wild-type reference) [19]: 100 % of wild-type reference; Mean Absorbance [20]: 1.88 absorbance (450 nm)
